As usually defined, the Km is the concentration of substrate that gives half-maximal velocity.

Results on one protein are retold here after PMC3695523, “Reconstitution and characterization of eukaryotic N6-threonylcarbamoylation of tRNA using a minimal enzyme system” (Nucleic Acids Research, 2013).

Substrate in the data set: C[C@@H](O)[C@H](N)C(=O)O
Put plainly: HPLC nucleoside analysis of t6A formed on tRNA-Ile in reconstituted assay. The class given is biochemical, Saccharomyces cerevisiae. The settings on record: coupled two-enzyme system: Sua5 plus yeast Qri7 (30-407), 2 uM Sua5/Qri7, 20 uM tRNA-Ile, 2 mM ATP, 1 mM NaHCO3, 5 mM MnCl2, 200 mM NaCl, 50 mM Tris-HCl pH 8.0, ambient temperature, 60 min.

B1: Sua5 (Saccharomyces cerevisiae S288C) (protein)
chain: MYLGRHFLAMTSKALFDTKILKVNPLSIIFSPDAHIDGSLPTITDPETEAALVEAARIIRDTDETVAFPTETVYGLGGSALNDNSVLSIYRAKNRPSDNPLITHVSSIDQLNRKVFNQPHLSGTSLFDNIPSIYRPLISSLWPGPLTILLPVPSSEHSALSKLTTADQPTFAVRIPANPVARALIALSDTPIAAPSANASTRPSPTLASHVYHDLKDKIPIILDGGACKVGVESTVVDGLCNPPTLLRPGGFTYEEIVKLGGEAWSLCKVENKKTVEKGEKVRTPGMKYRHYSPSAKVVLLVPHCEGDGILKGVDRMERLKRLIETELKANSNIKKIAILTSLKLRDSDLQSKIFNEPDFSSKTFIIERLGQSGEEIQTNLFAALRKVDENDKVDLIFVEGINEEGEGLAVMNRLRKAAANNCIQF
notes: full length; N-terminal hexa-histidine or GST tag; expressed in E. coli BL21 (DE3) CodonPlus
B1: the Km was determined as 0.11 ± 0.014 µM.
